Tests used:
Assay in all cases: pull-down binding Z-score (relative to library population); higher = stronger binding
Conditions in all cases: RNA library: Library-2
[1] = tested on: TO-3-N3-2 (biotin conjugate)
In short: (§1)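 To score binding, a beads-only signal was subtracted, barcoded replicate probes were averaged with the highest and lowest dropped, and the value was converted to a Z-score using the library mean and standard deviation. The input was 1 μg of Cy5- or Cy3-end-labelled RNA library, heat-folded in phosphate/NaCl/KCl buffer and mixed for 60 min at 25 °C with streptavidin beads carrying 100 pmol of biotin-conjugated small molecule. Bound RNA was eluted in hot SDS and hybridised to a DNA barcode microarray at 55.5 °C for 20 h.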

[2] = tested on: TO-3-N3 (biotin conjugate)
In short: as §1

TO-N3 (biotin conjugate) = tested on: TO-N3 (biotin conjugate)
In short: as §1

[3] = tested on: TO-N3-2 (biotin conjugate)
In short: as §1

Row | Sequence | pull-down binding Z-score [1] | pull-down binding Z-score [2] | pull-down binding Z-score (TO-N3 (biotin conjugate)) | pull-down binding Z-score [3]
1 | GUCUCCUACUAAAUUAAAUGAUCUCUGCUUUACUAAUGUCUAUGCAGAUUCAUUUGUAAUUAGAGGUGAU | -0.285 | -0.707 | -0.922 | -0.628
2 | GGUGGAAUUGGACGAUUCUACAUCCAAAUGUGCACC [IAV_invivo_NP_5_Motif_3+IAV_invivo_NP_5_Motif_3] | -0.333 | -0.714 | -0.779 | -0.454
3 | GCAGUUAAAAUGUUUGAUGCUUACGUUAAUACGUUUUCAUCAACUUUUAACGU | -0.145 | -1.09 | -1.37 | -1.09
4 | ACUAAAAUAAAACCUCAUAAUUCACAUGAAGGUAAAACAUUUUAUGUUUUACCUAAUGAUGACACUCUACGUGUUGAGGCUUUUGAGU [DMSMaPseq_invitro_SARS-CoV-2_Multi_18_ComplexLevel_1] | -0.146 | -0.89 | -1.12 | -1.02
5 | GGCUGGUGGCACUACUGAAAUGCUAGCGAAAGCUUUGAGAAAAGUGCCAACAGAC | -0.33 | 0.234 | 0.418 | 0.4
6 | AAAUUUACAAAACACCACCAAUUAAAGAUUUUGGUGGUUUUAAUUU [DMSMaPseq_invitro_SARS-CoV-2_Motif_425] | 0.331 | 1.34 | 1.06 | -0.725
7 | GCGCUGCCAGAAACUGGCUUCAGCGC [bulge-UUC] | -0.243 | -0.611 | -0.796 | -0.304
8 | UCUCUAUGACAAACUUGUUUCAAGCUUUUUGGAAAUGAAGAGUGAAAAGCAAGUUGAACAAAAGAUCGCUGAGA [SHAPE_invitro_SARS-CoV-2_Motif_69] | -0.507 | -0.0465 | -0.0892 | 0.388
9 | UGUACAUACAGCUAAUAAAUGGGAUCUCAUUAUUAGUGAUAUGUACG [DMSMaPseq_invitro_SARS-CoV-2_Motif_370] | -0.188 | -0.362 | -0.461 | -0.223
10 | AAAGGACUGGUAUGAUUUUGUAGAAAACCCAGAUAUAUUACGCGUAUACGCCAACUUAGGUGAACGUGUACGCCAAGCUUU | -0.0434 | -0.541 | -0.193 | 0.0415
11 | GCGCCGCCAGAAACUGGCAGCGC [mismatch-CA] | -0.524 | 0.381 | 0.225 | -1.05
12 | UGUACAUCUUCUUUGCAUCAUUUUAUUAUGUAUGGAAAAGUUAUGUGCA [SHAPE_invitro_SARS-CoV-2_Motif_147] | -0.347 | -0.791 | -0.813 | -0.553
13 | GCUAACAAACAUGCUGAUUUUGACACAUGGUUUAGCCAGCGUGGUGGUAGU | 0.101 | -0.205 | 0.157 | 0.519
14 | CAACAAAAGUUG [SHAPE_invivo_SARS-CoV-2_Motif_413] | -0.787 | -0.893 | -1.44 | -1.52
15 | UUAAAAUAUGACUUCACGGAAGAGAGGUUAAAACUCUUUGACCGUUAUUUUAA [DMSMaPseq_invitro_SARS-CoV-2_Motif_258] | 0.159 | 0.0656 | -0.184 | -0.898
16 | AAGUUAAUUUUCCUCUGGCUGUUAUGGCCAGUAACUU [SHAPE_invivo_SARS-CoV-2_Motif_506] | -0.439 | -0.74 | -1.02 | -0.963
17 | UCCUAAAGUGAAGUAUUUAUACUUUAUUAAAGGA [SHAPE_invitro_SARS-CoV-2_Motif_235] | -0.48 | -1.14 | -1.44 | -1.61
18 | AUCUUUCUGUGCUUUUGCUGUAGAUGCUGCUAAAGCUUACAAAGAU | 0.0938 | 0.238 | 0.0426 | -0.263
19 | CUGUCACUAAG | -0.0755 | -0.404 | -0.36 | -0.584
20 | UAGUGCUAUGCAGACAAUGCUUUUCACUA | -0.341 | -0.863 | -1.14 | -0.838
21 | GUCGCUACAGGAUUGGCAACUAUAAAUUAAACACAGACCAUUCCAGUAGCAGUGAC [SHAPE_invitro_SARS-CoV-2_Motif_494] | 0.215 | 0.00722 | 0.0101 | -0.283
22 | GCUUGUCACACCGUUUCUAUAGAUUAGCUAAUGAGUGUGCUCAAGU | -0.356 | -0.601 | -0.0415 | 0.588
23 | CCUUGCGAAAGGAGAGAAGGCUAAUGUGCUAAUUGGGCAAGG [IAV_invivo_PB2_1_Motif_34+IAV_invivo_PB2_1_Motif_34] | 0.584 | -0.245 | 0.291 | 0.837

Row | Sequence | pull-down binding Z-score [1] | pull-down binding Z-score [2] | pull-down binding Z-score (TO-N3 (biotin conjugate)) | pull-down binding Z-score [3]
24 | UCCGAUUUACAGGA [DMSMaPseq_invitro_SARS-CoV-2_Motif_227] | -0.0117 | -0.342 | -0.272 | -0.256
25 | GGUCUCCGACGGAGGCC [IAV_invivo_PB1_2_Motif_32+IAV_invivo_PB1_2_Motif_32] | -0.224 | 0.0169 | -0.183 | -1.15
26 | CCAAGGAAAUUUUGG | -0.382 | -0.192 | -0.373 | -0.948
27 | GUGGUUGACCUACACAGGUGCCAU | -0.562 | -0.678 | -0.612 | 0.102
28 | ACAGGGACUACUCCCACCCAAGAAUAGCAUAGAUGCCUUCAAACUCAACAUUAAAUUGUUGGGUGUUGGUGGCAAACCUUGUAUCAAAGUAGCCACUGU | 0.116 | -0.466 | -0.503 | -0.183
29 | GUUGUCUUGAAAACUGGUGAUUUACAACCAUUAGAACAACCUACUAGUGAAGCUGUUGAAGCUCCAUUGGUUGGUACACCAGUUUGUAUUAAC | -0.367 | -0.52 | -0.376 | -0.384
30 | GGAAAUGAUUCC [IAV_invivo_PB2_1_Motif_4+IAV_invivo_PB2_1_Motif_4] | -0.712 | -0.59 | -1.05 | -1.3
31 | GCUAGUGGGGGACAACCAAUCACUAAUUGUGUUAAGAUGUUGUGUACACACACUGGU | 0.649 | 0.789 | 1.03 | 0.564
32 | CUAUACUGUUACUAGAUCAGGCAUUAGUGUCUGAUGUUGGUGAUAGUGCGG | -0.622 | -0.845 | -0.939 | -0.582
33 | UAUUAUUGCUAUGUCUGCUUUUGCAAUGAUG | -0.373 | -1.09 | -1.29 | -1.18
34 | UGGUUUCCAACCCACUAAUGGUGUUGGUUACCA | -0.442 | -0.662 | -1.05 | -1.18
35 | GCAGAGACAGAAGAAACAGCAAACUGUGACUCUUCUUCCUGC | -0.128 | -0.211 | -0.156 | 0.0897
36 | CUGUUGAUUCAUCACAG | 0.174 | 1.37 | 1.14 | -0.421
37 | GAUCAGUUUCACCUAAACUGUUC | -0.626 | -1.06 | -1.46 | -1.08
38 | ACAGAUCUUUACCAGGAGUUUUCUGU | -0.827 | -0.933 | -1.28 | -1.3
39 | AAUAGAAGAAUUAUUCUAUU [SHAPE_invitro_SARS-CoV-2_Motif_349] | -0.687 | -0.546 | -0.867 | -1.81
40 | GCCUGUGUAAAUGGU [IAV_invivo_NA_6_Motif_8+IAV_invivo_NA_6_Motif_8] | -0.297 | -0.344 | -0.471 | -0.434
41 | CUUUUGAAGAAG [SHAPE_invivo_SARS-CoV-2_Motif_195] | -0.577 | -0.686 | -1.16 | -1.33
42 | GGGUUGGGUUGGGUUGGGUUGGGUUGGGUUGGGUUGGGUU [G4_r(GGGUU)8] | 10.2 | 8.9 | 7.46 | 5.93
43 | CCUCUAAAAGCCCCAAAAGAAAUUAUCUUCUUAGAGGGAGAAACACUUCCCACAGAAGUGUUAACAGAGG | -0.139 | -0.556 | -0.162 | 0.314
44 | UGUGUCAAUAUUUAAACACA | -0.00504 | 0.372 | 0.135 | -0.99
45 | CCAUUUGCUAUGCAAAUGG | -0.677 | -0.562 | -1.05 | -1.56
46 | GCAGCAAUAUGC [IAV_invivo_PA_3_Motif_2+IAV_invivo_PA_3_Motif_2] | -0.292 | 0.588 | 0.548 | -0.111

Row | Sequence | pull-down binding Z-score [1] | pull-down binding Z-score [2] | pull-down binding Z-score (TO-N3 (biotin conjugate)) | pull-down binding Z-score [3]
47 | UGUGUGAUAUCAGACA | -0.703 | -0.5 | -0.639 | -0.597
48 | GGCCGCAAAUUGCACAAUUUGCCCCC [SHAPE_invivo_SARS-CoV-2_Motif_557] | -0.187 | 0.76 | 0.62 | -0.213
49 | GCCUUGAAGCCCCUUUUCUCUAUCUUUAUGCUUUAGUCUACUUCUUGCAGAGUAUAAACUUUGUAAGAAUAAUAAUGAGGC | 0.362 | 0.275 | 0.232 | 0.166
50 | UAGCUUGUUUUGUGCUUGCUG [SHAPE_invivo_SARS-CoV-2_Motif_507] | -0.546 | 0.134 | -0.0778 | -0.699
51 | AGGUAAAACCAACAGUGGUUGUUAAUGCAGCCAAUGUUUACCU | -0.615 | -0.405 | -1.2 | -1.45
52 | ACAUCUCUGGCAUUAAUGCUUCAGUUGU [SHAPE_invivo_SARS-CoV-2_Motif_471] | -0.583 | -1.08 | -1.33 | -1.06
53 | UACAAACUUGUG [DMSMaPseq_invitro_SARS-CoV-2_Motif_398] | -0.609 | -0.625 | -1.02 | -1.04
54 | GUUCUCUAAACGAAC | -0.742 | -0.273 | -0.364 | -1.16
55 | CAGACUUUGUGAAUGAGUUUUACGCAUAUUUGCGUAAACAUUUCUCAAUGAUGAUACUCUCUG | -0.222 | -0.682 | -0.747 | -0.783
56 | GGCUAUGUAACACAUGGCU | -0.449 | -0.114 | -0.351 | -1.06
57 | CUUUGUAUUGCAUAGACGGUGCUUUACUUACAAAGUCCUCAGAAUACAAAG | -0.719 | -0.811 | -1.28 | -1.1
58 | AAACCUAAUGAAUUAUCUAGAGUAUUAGGUUU [SHAPE_invitro_SARS-CoV-2_Motif_132] | -0.157 | -0.888 | -0.985 | -1.06
59 | GCCACUAGUCUCUAGUCAGUGUGUUAAUCUUACAACCAGAACUCAAUUACCCCCUGCAUACACUAAUUCUUUCACACGUGGU [SHAPE_invivo_SARS-CoV-2_Motif_403] | 0.101 | -0.0417 | 0.388 | 0.688
60 | GAUGGCACUUGUGGCUUAGUAGAAGUUGAAAAAGGCGUUUUGCCUCAACUUGAACAGCCCUAUGUGUUCAUC | -0.0725 | -0.665 | -0.48 | 0.432
61 | UAAAAUGAAUUAUCAAGUUA [DMSMaPseq_invitro_SARS-CoV-2_Motif_325] | -0.451 | -0.703 | -1.04 | -1.2
62 | GGACAAUUCACCUAAUUUAGCAUGGCCUCUUAUUGUAACAGCUUUAAGGGCCAAUUCUGCUGUCAAAUUACAGAAUAAUGAGCUUAGUCC | -0.176 | -0.496 | -0.563 | -0.485
63 | CACUUAUCUUAGCCUACUGUAAUAAGACAGUAGGUGAGUUAGGUG | -0.273 | -0.861 | -1.2 | -1.07
64 | GACAGUGGUUGCCUACGGGUACGCUGCUUGUC | -0.021 | 0.731 | 0.666 | 0.01
65 | UCCUGUUUACCUUUUACAAUUAAUUGCCAGGA [SHAPE_invivo_SARS-CoV-2_Motif_533] | -0.351 | -0.84 | -1.01 | 0.272
66 | ACCACCAAUUAAAGAUUUUGGUGGU [SHAPE_invitro_SARS-CoV-2_Motif_434] | -0.49 | 0.206 | -0.123 | -1.4
67 | GGGAAUAUAAUCUC [IAV_invivo_NA_6_Motif_2+IAV_invivo_NA_6_Motif_2] | 0.038 | 1.52 | 1.33 | -0.715
68 | CCCAUUGGAGAGUCCCCCAAAGGAGUGGAGGAAAGUUCCAUUGGG [IAV_invivo_PA_3_Motif_26+IAV_invivo_PA_3_Motif_26] | -0.0971 | -0.0565 | -0.0467 | 0.298

From the supplement of paper PMC11865577
